The values that follow are results of earlier work, collected in patent US20220031810A1, “FORMULATIONS OF GLUCAGON-LIKE-PEPTIDE-2 (GLP-2) ANALOGUES” (Zealand Pharma A/S, priority 2018, published 2022).

Where two headings read alike, the source gives them in different places.

One may read the half-life as the time needed for the level to fall by half in the phase considered. Take `CC[C@H](C)[C@H](NC(=O)[C@H](Cc1ccccc1)NC(=O)[C@H](CC(=O)O)NC(=O)[C@H](CCCNC(=N)N)NC(=O)[C@H](C)NC(=O)[C@H](C)NC(=O)[C@H](CC(C)C)NC(=O)[C@H](CC(N)=O)NC(=O)[C@H](CC(=O)O)NC(=O)[C@H](CC(C)C)NC(=O)[C@@H](NC(=O)[C@@H](NC(=O)[C@H](CC(N)=O)NC(=O)[C@H](CCSC)NC(=O)[C@H](CCC(=O)O)NC(=O)[C@H](CC(=O)O)NC(=O)[C@H](CO)NC(=O)[C@H](Cc1ccccc1)NC(=O)[C@H](CO)NC(=O)CNC(=O)[C@H](CC(=O)O)NC(=O)CNC(=O)[C@@H](N)Cc1c[nH]cn1)[C@@H](C)O)[C@@H](C)CC)C(=O)N[C@@H](CC(N)=O)C(=O)N[C@@H](Cc1c[nH]c2ccccc12)C(=O)N[C@@H](CC(C)C)C(=O)N[C@H](C(=O)N[C@@H](CCC(N)=O)C(=O)N[C@H](C(=O)N[C@@H](CCCCN)C(=O)N[C@H](C(=O)N[C@H](C(=O)N[C@@H](CC(=O)O)C(=O)O)[C@@H](C)O)[C@@H](C)CC)[C@@H](C)O)[C@@H](C)CC` [teduglutide]: the half-life result (Gly substitution at position 2, compared with native GLP-2) is on record as “about two”.
Take “GLP-2 [3-33]: truncated GLP-2 [3-33] (DGSFSDEMNTILDNLAARDFINWLIQTKITD; Glucagon-like peptide 2; UniProt P01275 148-178, looked up, fragment)”: the half-life (in humans) is around 27 min.
Consider “Hy-His-Ala-Asp-Gly-Ser-Phe-Ser-Asp-Glu-Met-Asn-Thr-Ile-Leu-Asp-Asn-Leu-Ala-Ala-Arg-Asp-Phe-Ile-Asn-Trp-Leu-Ile-Gln-Thr-Lys-Ile-Thr-Asp-OH [GLP-2 [1-33]]”, for which the half-life result runs as follows: (in humans) “around 7 minutes”; (in humans, listed as native GLP-2) “seven”.
